# Assay results as given in patent publication US20130196320A1, “METHOD FOR IMPROVING CLEAVAGE OF DNA BY ENDONUCLEASE SENSITIVE TO METHYLATION” (CELLECTIS, priority 2010, published 2013).
# “And” between values parts separate entries of the source, which are not always exact repeats. Identical values can stand only once.
# B1: I-CreI: wild-type I-CreI meganuclease (… homing endonuclease), SEQ ID NO: 1, recombinant Cterm His-tag (protein, listed as Chlamydomonas reinhardtii)
# chain: MNTKYNKEFLLYLAGFVDGDGSIIAQIKPNQSYKFKHQLSLTFQVTQKTQRRWFLDKLVDEIGVGYVRDRGSVSDYILSEIKPLHNFLTQLQPFLKLKQKQANLVLKIIEQLPSAKESPDKFLEVCTWVDQIAALNDSKTRKTTSETVRAVLDSLSEKKKSSP
# modifications: C-terminal His-tag
# Key:
# [1] = test system: XPC4 target CpG motives in 293H cells; test: DNA methylation of XPC4 target by bisulfite treatment and sequencing, 5-aza-2-deoxycytidine treatment; format: cell-based, human; settings: for amount of unmethylated C, % of total: one of the two CpG of XPC4 target; for amount of unmethylated C: the other CpG of XPC4 target
# Method: FIG. 9: Chromatograms of sequencing reactions at the XPC4 target locus, made after bisulfite treatment. Cells were pre-treated with 5-aza-2-deoxycytidine at 0.2 μM or 1 μM 48 hours before transfection with the XPC4 meganuclease or with an empty vector. The treatment was maintained 48 hours post-transfection. As a control, we used cells not treated with 5-aza-2-deoxycytidine (NT). Two days post transfection, genomic DNA was extracted and treated with bisulfite, which converts cytosine, but not 5-methylcytosine into uracil. DNA from the XPC4 target locus region was amplified by PCR, and sequenced. Sequence of the XPC4 target is indicated on top (XPC4 target), with the two CpG motives being underlined. On the chromatograms, 5-methyl-cytosines appear as cytosines (C), and non methylated cytosines (converted to uracil) as thymines (T). In the presence of 5-aza-2-deoxycytidine, a fraction of the CpG motives is demethylated, resulting in a dual C/T peak.
# The human 293H cells (ATCC) were plated at a density of 1.2×10^6 cells per 10 cm dish in complete medium (DMEM supplemented with 2 mM L-glutamine, penicillin (100 IU/ml), streptomycin (100 μg/ml), amphotericin B (Fongizone: 0.25 μg/ml, Invitrogen-Life Science) and 10% FBS) supplemented with 5-aza-deoxycytidine. The next day, cells were transfected with 3 μg of meganuclease expression vector in the presence of 5-aza-deoxycytidine and Lipofectamine 2000 transfection reagent (Invitrogen) according to the manufacturer's protocol.
# Cells were pre-treated with 5-aza-deoxycytidine at 0.2 μM or 1 μM 48 hours before transfection and the treatment was maintained 48 hours post-transfection. As a control, cells not treated with 5-aza-2-deoxycytidine (NT) were used. Extraction of genomic DNA was performed 48 hours after transfection.
# To assess the level DNA methylation, DNA sequencing was performed after a bisulfite treatment according to the instructions of the manufacturer (EZ DNA methylation-Gold Kit, Zymo Research). After genomic DNA extraction, the XPC4 target locus was amplified by PCR with specific primers
# C1234 DNA target = test: In vitro single turn over cleavage assay with C1234 duplexes; format: biochemical
# Method: FIG. 5: In vitro cleavage of unmethylated or methylated C1234 by I-Cre I wild type. A constant amount of C 1234 duplex (50 nM) was incubated with an excess of I-Cre I (1.5 μM, final concentration) in the reaction buffer (10 mM Tris-HCl, 150 mM NaCl, pH8) at 37° C. Cleavage reaction was triggered by the addition of MgCl2 and then stopped after different time lengths by the addition of the stop buffer. This was followed by one hour of incubation at 37° C. to digest I-Cre I and release free DNA molecules. Cleaved and uncleaved DNA products were separated by PAGE using a TGX Any kD precast gel (Bio-Rad), stained with SYBR Green and then quantified using Quantity One software (Bio-Rad). Disappearance of substrate (uncleaved DNA) is plotted as a function of time.
# To investigate the influence of C1234 methylation on the nuclease activity of I-Cre I, in vitro single turn over cleavage assays were performed with either unmethylated or methylated C1234 duplexes (unmethylated C1234 composed of SEQ ID NO: 31+SEQ ID NO: 32, C1234_Me full composed of SEQ ID NO: 35+SEQ ID NO: 38, C1234_Me-6a/-5b composed of SEQ ID NO: 33+SEQ ID NO: 36, C1234_Me-3a/-2b composed of SEQ ID NO: 34+SEQ ID NO: 37, C1234_Me-3a composed of SEQ ID NO: 34+SEQ ID NO: 32, C1234_Me-2b composed of SEQ ID NO: 31+SEQ ID NO: 37, respectively). A constant amount of C1234 duplex (50 nM) was incubated with an excess of I-Cre I (1.5 μM, final concentration) in the reaction buffer (10 mM Tris-HCl, 150 mM NaCl, pH8) at 37° C. Cleavage reaction was triggered by the addition of MgCl2 and then stopped after different time lengths by the addition of the stop buffer (45% glycerol, 95 mM EDTA, 1.5% (w/v) SDS, 1.5 mg/mL proteinase K and 0.048% (w/v) bromophenol blue, final concentrations). This was followed by one hour incubation at 37° C. to digest I-Cre I and release free DNA molecules. Cleaved and uncleaved DNA products were separated by PAGE using a TGX Any kD precast gel (Bio-Rad), stained with SYBR Green and then quantified using Quantity One software (Bio-Rad).
# To test the influence of C 1234 methylation on I-Cre I cleavage activity, single turn over cleavage assays in vitro were performed with unmethylated (composed of SEQ ID NO: 31+SEQ ID NO: 32) or with different methylated forms of C1234 (FIG. 5). In these assays C1234 was premixed to a large excess of recombinant meganucleases before addition of MgCl2. After different time lengths, the reaction was quenched by addition of a stop buffer, the remaining substrate was separated from the reaction product and then quantified. In these conditions, substrate disappearance was a first order process. The rate constant of this process corresponded to the turn over number (kcat) of the meganuclease. Turn over number measurement was not affected by affinity differences between methylated and unmethylated C1234 for I-Cre I because in our experimental conditions, the totality of C1234 was bound to the meganuclease at the beginning of reaction. In addition, this measurement was not affected by the rate limiting step of product release (Wang J, Kim H H, Yuan X, Herrin D L: Purification, biochemical characterization and protein-DNA interactions of the I-CreI endonuclease produced in Escherichia coli. Nucleic Acids Res 1997, 25:3767-3776) because the complex I-Cre I:cleaved C1234 product was artificially disrupted by the proteinase K and SDS present in the stop buffer.
Molecule,"amount of unmethylated C, % of total ([1]; 0.2 μM) [%]","amount of unmethylated C, % of total ([1]; 1 μM) [%]",amount of unmethylated C ([1]; 0.2 μM) [%],amount of unmethylated C ([1]; 1 μM) [%],kcat (C1234 DNA target; C1234_Me full (fully methylated)) [s⁻¹],kcat (C1234 DNA target; C1234_Me-2b) [s⁻¹],kcat (C1234 DNA target; C1234_Me-3a) [s⁻¹],kcat (C1234 DNA target; C1234_Me-3a/-2b) [s⁻¹],kcat (C1234 DNA target; C1234_Me-6a/-5b) [s⁻¹],effect of methylation on catalytic activity (C1234 DNA target; C1234 methylated in position −2b),effect of methylation on catalytic activity (C1234 DNA target; C1234 methylated in position −3a),effect of methylation on catalytic activity (C1234 DNA target; C1234 methylated in positions −3a and −2b (within the cleavage region)),effect of methylation on catalytic activity (C1234 DNA target; C1234 methylated in positions −6a/−5b (outside the cleavage region)),kcat (C1234 DNA target; unmethylated C1234)
"Nc1ncn([C@H]2C[C@H](O)[C@@H](CO)O2)c(=O)n1 [5-aza-2′deoxycytidine, reference compound]",25,36,35,45,,,,,,,,,,
B1,,,,,<1.7e-06,<1.7e-06,0.00095 ± 0.0001,3.3e-06 ± 5e-05,0.00033 ± 0.00012,almost totally inhibited it,didn't affect 1-Cre I catalytic activity,strongly affected the catalytic activity of I-Cre I,did not affect I-Cre I catalytic activity,0.000417 s⁻¹ and 0.000417 ± 3.3e-05 s⁻¹
